{"source": "patent US20220143148A1", "about": "“COMPOSITIONS AND METHODS FOR MODULATING CGRP SIGNALING TO REGULATE INTESTINAL INNATE LYMPHOID CELLS” (The Broad Institute, Inc., priority 2019, published 2022)", "molecules": {"B1": {"name": "OVA (protein, UniProt P01012 2-386, looked up)", "Ovalbumin": "GSIGAASMEFCFDVFKELKVHHANENIFYCPIAIMSALAMVYLGAKDSTRTQINKVVRFDKLPGFGDSIEAQCGTSVNVHSSLRDILNQITKPNDVYSFSLASRLYAEERYPILPEYLQCVKELYRGGLEPINFQTAADQARELINSWVESQTNGIIRNVLQPSSVDSQTAMVLVNAIVFKGLWEKAFKDEDTQAMPFRVTEQESKPVQMMYQIGLFRVASMASEKMKILELPFASGTMSMLVLLPDEVSGLEQLESIINFEKLTEWTSSNVMEERKIKVYLPRMKMEEKYNLTSVLMAMGITDVFSSSANLSGISSAESLKISQAVHAAHAEINEAGREVVGSAEAGVDAASVSEEFRADHPFLFCIKHIATNAVLFFGRCVSP"}}, "test_system": "small intestinal immune cells", "assay": "Droplet-based scRNA-seq of small intestinal immune cells (LP and PP), OVA vs PBS, clustering and differential expression", "assay_type": "in vivo, mouse", "settings": "cluster ID 6, PP", "excerpt": "To comprehensively characterize small intestinal immune cells, Applicants generated scRNA-Seq profiles for 58,067 immune cells collected from lamina propria (LP) and Peyer's patch (PP) regions at steady state and after induction of a type 2 inflammatory reaction to ovalbumin (OVA) (Brandt et al., 2003) (FIGS. 1A and 8A). To ensure sufficient representation of rare cells, Applicants combined a normalization strategy—removing by flow sorting either a portion of IgD+ naïve B cells, which are the most abundant cell type in PPs, or all CD19+ and CD3+ T cells (FIG. 8B, Methods)—with profiling of a sufficiently large number of cells number (P>0.99 to recover at least 15 cells from each cluster, Methods) by massively parallel scRNA-seq (Haber et al., 2017) (Methods). Applicants obtained 36,797 and 21,270 high quality cells passing initial filtering (Methods) from PP and LP regions, respectively.\nOverall, Applicants annotated 27 cell subsets across the two compartments, spanning T cells, B cells, ILCs, dendritic cells (DCs), myeloid cells and stromal cells, in frequencies ranging from 0.07% to 14%. Briefly, Applicants first partitioned the cells from the PP regions by unsupervised clustering (Methods) into 46 clusters, retained the 97% of cells that were robustly assigned cell identities in each cluster (Methods), assigned the cells from the LP regions to the 46 clusters using a classifier (Methods), and visualized the data with scvis (Ding et al., 2018), a deep generative model-based method (FIGS. 1B and 8C, Methods). Next, Applicants identified genes that were differentially expressed between the cells in each cluster and the remaining cells (Table 1, Methods), as well as between pairs of clusters (Table 2), to elucidate identities of similar cell types/states. Applicants excluded from downstream analysis clusters mostly consisting of contaminants from epithelium, likely doublets, or cells with a small number of Unique Molecular Identifiers (UMIs) (FIGS. 1C and 8D), or lacking distinct markers (Methods). Altogether, Applicants retained 27 clusters spanning 85% of the cells and each associated with distinct marker genes (FIG. 8E, Methods).\nTo induce allergic reaction to OVA, 6 to 7 weeks old mice were sensitized twice, two weeks apart, with 50 μg of OVA plus 1 mg of aluminum potassium sulfate adjuvant via intraperitoneal injection. Two weeks later, mice were orally administered with 50 mg of OVA on every other day for a total of five times. 1 μg of α-CGRP peptide was administered simultaneously when indicated. Mice were deprived of food for 3-4 hours in cages with wood chip bedding for limiting antigen degradation in the stomach before each intragastric challenge.\nIsolation of cells from Peyer's patches (PPs). Peyer's patches (PPs) were carefully dissected from the small intestine under a stereo microscope using a fine scissor, pierced once with a fine forcep. Tissues were digested in freshly made digestion buffer (RPMI-1640 containing 100 μg/ml Liberase™ and 50 μg/ml DNase I at 37° C. on a roto-mixer. After 15 min, tissues were very gently mixed using a 1 ml pipette. The supernatant was collected and added to ice-cold MACS buffer (pH 7.4; PBS plus 2% FCS and 2 mM EDTA). Pre-warmed (37° C.) fresh digestion buffer was added to the remaining tissues. After rotation at 37° C. for 15 min, the mixture was vigorously mixed using a 1 ml pipette for 1 min. Supernatants from the two steps were combined and passed through 70 μm filters and stained for FACS (below).\nIsolation of cells from the lamina propria (LP). The small intestines were opened longitudinally and washed in ice-cold PBS. For scRNA-seq, roughly 0.5 cm of fragments from each of the distal, middle and proximal regions without visible PPs were collected. Epithelial cells were dissociated by tissue rotation in pre-warmed (37° C.) PBS containing 10 mM EDTA at 37° C. for 15 min, followed by additional incubation on ice for 15 min. Tissues were then shaken vigorously. […]"}
{"molecule": "B1", "values": [{"measurement": "Mcpt1: percentage of expressing cells in OVA-treated group", "value": 0.35}, {"measurement": "Mcpt2: percentage of expressing cells in OVA-treated group", "value": 0.212}, {"measurement": "Mir142hg: percentage of expressing cells in OVA-treated group", "value": 0.169}, {"measurement": "Mpeg1: percentage of expressing cells in OVA-treated group", "value": 0.992}, {"measurement": "Napsa: percentage of expressing cells in OVA-treated group", "value": 0.888}, {"measurement": "Neat1: percentage of expressing cells in OVA-treated group", "value": 0.885}, {"measurement": "Nfkbia: percentage of expressing cells in OVA-treated group", "value": 0.661}, {"measurement": "Nfkbiz: percentage of expressing cells in OVA-treated group", "value": 0.336}, {"measurement": "Npc2: percentage of expressing cells in OVA-treated group", "value": 0.985}, {"measurement": "Nr4a1: percentage of expressing cells in OVA-treated group", "value": 0.508}, {"measurement": "Nr4a3: percentage of expressing cells in OVA-treated group", "value": 0.134}, {"measurement": "Odc1: percentage of expressing cells in OVA-treated group", "value": 0.366}, {"measurement": "Os9: percentage of expressing cells in OVA-treated group", "value": 0.441}, {"measurement": "Pik3ip1: percentage of expressing cells in OVA-treated group", "value": 0.423}, {"measurement": "Pim1: percentage of expressing cells in OVA-treated group", "value": 0.509}, {"measurement": "Plek: percentage of expressing cells in OVA-treated group", "value": 0.617}, {"measurement": "Plekho2: percentage of expressing cells in OVA-treated group", "value": 0.201}, {"measurement": "Pltp: percentage of expressing cells in OVA-treated group", "value": 0.878}, {"measurement": "Pnrc1: percentage of expressing cells in OVA-treated group", "value": 0.706}, {"measurement": "Ppia: percentage of expressing cells in OVA-treated group", "value": 0.998}, {"measurement": "Ppp1r16b: percentage of expressing cells in OVA-treated group", "value": 0.237}, {"measurement": "Ppp2ca: percentage of expressing cells in OVA-treated group", "value": 0.539}, {"measurement": "Psap: percentage of expressing cells in OVA-treated group", "value": 0.997}, {"measurement": "Ptp4a1: percentage of expressing cells in OVA-treated group", "value": 0.4}, {"measurement": "Ptpre: percentage of expressing cells in OVA-treated group", "value": 0.392}, {"measurement": "Rel: percentage of expressing cells in OVA-treated group", "value": 0.381}, {"measurement": "Rgs1: percentage of expressing cells in OVA-treated group", "value": 0.466}, {"measurement": "Rilpl2: percentage of expressing cells in OVA-treated group", "value": 0.851}, {"measurement": "Rnase6: percentage of expressing cells in OVA-treated group", "value": 0.991}, {"measurement": "Rnf19b: percentage of expressing cells in OVA-treated group", "value": 0.255}, {"measurement": "Rpn2: percentage of expressing cells in OVA-treated group", "value": 0.664}, {"measurement": "Runx3: percentage of expressing cells in OVA-treated group", "value": 0.53}, {"measurement": "S1pr4: percentage of expressing cells in OVA-treated group", "value": 0.351}, {"measurement": "Sell: percentage of expressing cells in OVA-treated group", "value": 0.983}, {"measurement": "Selplg: percentage of expressing cells in OVA-treated group", "value": 0.992}, {"measurement": "Sf3b1: percentage of expressing cells in OVA-treated group", "value": 0.706}, {"measurement": "Siah2: percentage of expressing cells in OVA-treated group", "value": 0.253}, {"measurement": "Skil: percentage of expressing cells in OVA-treated group", "value": 0.435}, {"measurement": "Sla2: percentage of expressing cells in OVA-treated group", "value": 0.735}, {"measurement": "Smc6: percentage of expressing cells in OVA-treated group", "value": 0.849}, {"measurement": "Socs3: percentage of expressing cells in OVA-treated group", "value": 0.55}, {"measurement": "Spsb2: percentage of expressing cells in OVA-treated group", "value": 0.187}, {"measurement": "Tgif1: percentage of expressing cells in OVA-treated group", "value": 0.115}, {"measurement": "Tnfaip8l2: percentage of expressing cells in OVA-treated group", "value": 0.512}, {"measurement": "Traf4: percentage of expressing cells in OVA-treated group", "value": 0.535}, {"measurement": "Trim25: percentage of expressing cells in OVA-treated group", "value": 0.339}, {"measurement": "VgIl4: percentage of expressing cells in OVA-treated group", "value": 0.34}, {"measurement": "Vps37b: percentage of expressing cells in OVA-treated group", "value": 0.424}, {"measurement": "Wnk1: percentage of expressing cells in OVA-treated group", "value": 0.605}, {"measurement": "Zc3h12a: percentage of expressing cells in OVA-treated group", "value": 0.135}, {"measurement": "Zfand5: percentage of expressing cells in OVA-treated group", "value": 0.423}, {"measurement": "Zfp36l2: percentage of expressing cells in OVA-treated group", "value": 0.783}, {"measurement": "AY036118: LN (average fold change)", "setting": "OVA vs PBS", "value": "−0.256"}, {"measurement": "Atf3: LN (average fold change)", "setting": "OVA vs PBS", "value": "−0.693"}, {"measurement": "Atp5h: LN (average fold change)", "setting": "OVA vs PBS", "value": 0.168}, {"measurement": "B3gnt8: LN (average fold change)", "setting": "OVA vs PBS", "value": 0.265}, {"measurement": "Bcl2l11: LN (average fold change)", "setting": "OVA vs PBS", "value": "−0.499"}, {"measurement": "Bhlhe40: LN (average fold change)", "setting": "OVA vs PBS", "value": "−0.297"}, {"measurement": "Bloc1s2: LN (average fold change)", "setting": "OVA vs PBS", "value": 0.218}, {"measurement": "Btg2: LN (average fold change)", "setting": "OVA vs PBS", "value": "−0.156"}, {"measurement": "Ccl4: LN (average fold change)", "setting": "OVA vs PBS", "value": 0.241}, {"measurement": "Cd68: LN (average fold change)", "setting": "OVA vs PBS", "value": 0.204}, {"measurement": "Cd83: LN (average fold change)", "setting": "OVA vs PBS", "value": "−0.472"}, {"measurement": "Cdv3: LN (average fold change)", "setting": "OVA vs PBS", "value": "−0.219"}, {"measurement": "Clcn3: LN (average fold change)", "setting": "OVA vs PBS", "value": "−0.239"}, {"measurement": "Clec10a: LN (average fold change)", "setting": "OVA vs PBS", "value": 0.327}, {"measurement": "Clec2d: LN (average fold change)", "setting": "OVA vs PBS", "value": 0.409}, {"measurement": "Coq10b: LN (average fold change)", "setting": "OVA vs PBS", "value": "−0.336"}, {"measurement": "Crem: LN (average fold change)", "setting": "OVA vs PBS", "value": "−0.279"}, {"measurement": "Cxcr3: LN (average fold change)", "setting": "OVA vs PBS", "value": 0.302}, {"measurement": "Cxcr4: LN (average fold change)", "setting": "OVA vs PBS", "value": 0.491}, {"measurement": "D13Ertd608e: LN (average fold change)", "setting": "OVA vs PBS", "value": 0.276}, {"measurement": "Ddit4: LN (average fold change)", "setting": "OVA vs PBS", "value": 1.322}, {"measurement": "Ddx3x: LN (average fold change)", "setting": "OVA vs PBS", "value": "−0.202"}, {"measurement": "Defa24: LN (average fold change)", "setting": "OVA vs PBS", "value": "−1.145"}]}
